Source: the supplement of paper PMC9876800

Test system: peptide library, one residue held at a place counted from the S/T acceptor
Experiment: relative phosphorylation of the sub-library (ratio to the mean residue at this position); higher = residue favoured
Procedure, shortened: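 Purified recombinant kinases were reacted in 384-well plates with biotinylated degenerate peptide sub-libraries, each having one residue fixed at one position around a central Ser/Thr. The reaction mix contained 50 μM peptide plus 50 μM ATP spiked with γ-32P-ATP and ran for 90 min under kinase-specific conditions. Relative sub-library phosphorylation, taken from densitometry of phosphorimaged streptavidin membrane spots, is a ratio to the mean residue at that position.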

Chain of EIF2AK3, construct: aa536-1116, human (Q9NZJ5 536-1116, looked up): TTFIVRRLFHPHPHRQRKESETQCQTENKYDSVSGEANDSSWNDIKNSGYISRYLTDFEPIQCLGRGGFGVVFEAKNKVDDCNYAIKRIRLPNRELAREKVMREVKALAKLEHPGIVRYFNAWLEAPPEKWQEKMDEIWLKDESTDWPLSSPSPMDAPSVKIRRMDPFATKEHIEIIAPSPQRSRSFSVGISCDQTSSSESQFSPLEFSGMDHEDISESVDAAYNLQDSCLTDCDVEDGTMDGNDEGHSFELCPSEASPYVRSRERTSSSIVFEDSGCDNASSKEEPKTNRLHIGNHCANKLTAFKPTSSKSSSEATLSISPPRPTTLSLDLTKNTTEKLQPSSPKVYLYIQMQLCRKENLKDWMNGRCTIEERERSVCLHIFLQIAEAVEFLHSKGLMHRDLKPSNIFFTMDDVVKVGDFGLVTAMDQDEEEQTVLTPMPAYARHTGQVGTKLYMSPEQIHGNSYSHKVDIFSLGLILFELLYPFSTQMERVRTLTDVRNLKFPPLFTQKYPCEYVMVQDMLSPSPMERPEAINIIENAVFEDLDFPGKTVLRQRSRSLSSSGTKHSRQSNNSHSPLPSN
Chain of MAP3K11, construct: aa99-398, human (Q16584 99-398, looked up): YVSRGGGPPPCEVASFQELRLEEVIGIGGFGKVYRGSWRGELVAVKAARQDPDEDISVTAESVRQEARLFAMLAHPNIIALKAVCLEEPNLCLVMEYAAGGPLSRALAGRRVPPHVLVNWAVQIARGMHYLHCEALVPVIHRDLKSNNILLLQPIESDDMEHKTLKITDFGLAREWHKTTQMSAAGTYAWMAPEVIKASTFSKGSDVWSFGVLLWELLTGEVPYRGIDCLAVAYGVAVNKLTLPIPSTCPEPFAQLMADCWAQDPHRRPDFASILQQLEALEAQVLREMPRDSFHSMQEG
Chain of GRK1, construct: Full length, human (Q15835 whole entry, looked up): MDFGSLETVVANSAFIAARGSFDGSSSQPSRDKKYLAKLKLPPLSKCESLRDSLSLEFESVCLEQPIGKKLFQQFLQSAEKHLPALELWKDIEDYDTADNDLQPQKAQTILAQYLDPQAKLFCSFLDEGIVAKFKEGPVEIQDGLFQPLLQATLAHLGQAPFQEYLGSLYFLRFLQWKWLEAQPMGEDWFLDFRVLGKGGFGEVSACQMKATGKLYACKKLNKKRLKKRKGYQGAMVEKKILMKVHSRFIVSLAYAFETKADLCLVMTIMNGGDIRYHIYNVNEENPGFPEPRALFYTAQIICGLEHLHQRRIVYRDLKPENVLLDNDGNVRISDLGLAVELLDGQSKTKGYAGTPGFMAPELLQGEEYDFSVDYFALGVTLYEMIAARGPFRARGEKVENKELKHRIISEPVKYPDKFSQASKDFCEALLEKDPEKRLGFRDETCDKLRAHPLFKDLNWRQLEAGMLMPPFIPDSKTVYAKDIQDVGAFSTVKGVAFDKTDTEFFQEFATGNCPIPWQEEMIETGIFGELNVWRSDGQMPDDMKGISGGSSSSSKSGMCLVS
Chain of LATS2, construct: aa553-end, human (Q9NRM7 553-1088, looked up): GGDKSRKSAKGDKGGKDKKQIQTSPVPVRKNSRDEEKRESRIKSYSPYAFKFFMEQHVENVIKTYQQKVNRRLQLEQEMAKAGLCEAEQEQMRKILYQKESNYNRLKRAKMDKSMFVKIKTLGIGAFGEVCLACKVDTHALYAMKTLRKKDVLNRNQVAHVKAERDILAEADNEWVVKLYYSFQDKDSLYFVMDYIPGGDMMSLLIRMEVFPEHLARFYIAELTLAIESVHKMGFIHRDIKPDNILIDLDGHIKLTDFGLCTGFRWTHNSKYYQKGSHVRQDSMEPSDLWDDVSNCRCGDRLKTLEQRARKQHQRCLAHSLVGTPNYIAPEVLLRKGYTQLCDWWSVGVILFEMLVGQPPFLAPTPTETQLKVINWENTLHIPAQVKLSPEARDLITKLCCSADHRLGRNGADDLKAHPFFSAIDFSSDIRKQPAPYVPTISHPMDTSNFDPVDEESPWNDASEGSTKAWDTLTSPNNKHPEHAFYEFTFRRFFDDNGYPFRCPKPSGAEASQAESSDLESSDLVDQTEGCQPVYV

EIF2AK3, construct: aa536-1116, human (from UniProt Q9NZJ5)
relative phosphorylation
Details | at +1 | at +2 | at +3 | at +4 | at -1 | at -2 | at -3 | at -4 | at -5
A fixed | 0.888 | 1.08 | 0.836 | 0.863 | 0.745 | 0.615 | 1.02 | 1.02 | 1.07
D fixed | 0.348 | 0.419 | 0.491 | 0.684 | 0.71 | 3.5 | 1.61 | 1.18 | 1
E fixed | 0.676 | 0.277 | 0.555 | 0.678 | 0.62 | 3 | 1.23 | 0.94 | 0.712
F fixed | 1.08 | 0.921 | 1.09 | 0.92 | 1.21 | 1.22 | 1.04 | 1.05 | 1.32
G fixed | 1.02 | 1.14 | 1.89 | 1.14 | 0.458 | 0.748 | 0.825 | 1.05 | 0.984
H fixed | 0.898 | 1.28 | 1.31 | 1.12 | 1.21 | 0.712 | 0.911 | 1.08 | 1.17
I fixed | 1.05 | 0.748 | 0.703 | 0.838 | 1.2 | 0.527 | 0.819 | 0.774 | 0.837
K fixed | 1.12 | 1.06 | 1.09 | 1.28 | 1.19 | 0.472 | 0.798 | 0.942 | 0.996
L fixed | 0.907 | 0.609 | 0.8 | 0.822 | 1.11 | 0.877 | 1.06 | 0.79 | 1.01
M fixed | 1.6 | 0.823 | 0.814 | 0.871 | 1.22 | 0.942 | 1.06 | 0.956 | 0.9
N fixed | 0.86 | 1.12 | 0.821 | 0.95 | 0.879 | 0.698 | 0.856 | 0.788 | 0.788
P fixed | 0.245 | 0.662 | 1.48 | 1.24 | 0.582 | 0.429 | 0.749 | 0.871 | 0.837
Q fixed | 1.43 | 0.719 | 0.778 | 0.865 | 0.837 | 0.615 | 0.767 | 0.751 | 0.713
R fixed | 2.11 | 2.2 | 1.43 | 1.53 | 1.34 | 0.576 | 0.934 | 1.1 | 1.06
V fixed | 0.92 | 0.709 | 0.664 | 0.78 | 1.25 | 0.544 | 0.839 | 0.825 | 0.769
W fixed | 0.809 | 1.44 | 1.25 | 1.3 | 1.07 | 0.892 | 1.42 | 1.66 | 1.49
Y fixed | 1.04 | 1.79 | 0.999 | 1.12 | 1.36 | 0.629 | 1.06 | 1.22 | 1.34
pThr fixed | 0.47 | 0.307 | 0.402 | 0.715 | 0.478 | 1.31 | 1.05 | 0.722 | 0.848
pTyr fixed | 0.828 | 0.387 | 0.715 | 0.796 | 0.726 | 0.527 | 1.05 | 0.682 | 0.847

GRK1, construct: Full length, human (from UniProt Q15835)
relative phosphorylation
Details | at +1 | at +2 | at +3 | at +4 | at -1 | at -2 | at -3 | at -4 | at -5
A fixed | 0.624 | 1.06 | 0.886 | 1.02 | 0.737 | 0.553 | 0.76 | 1.15 | 1.16
D fixed | 0.767 | 1.81 | 2.19 | 2.5 | 1.31 | 0.963 | 1.16 | 1.43 | 2.29
E fixed | 2.89 | 1.47 | 2.19 | 2.42 | 1.39 | 1.28 | 1.19 | 1.75 | 1.74
F fixed | 0.711 | 0.778 | 0.638 | 0.645 | 0.641 | 2.3 | 0.881 | 0.585 | 0.659
G fixed | 0.605 | 0.939 | 1.68 | 1.06 | 0.652 | 0.519 | 0.912 | 1.29 | 2.07
H fixed | 0.592 | 0.984 | 0.958 | 0.932 | 0.962 | 0.701 | 0.746 | 0.843 | 0.894
I fixed | 1.47 | 0.921 | 0.682 | 0.734 | 0.654 | 0.86 | 0.841 | 0.627 | 0.556
K fixed | 0.65 | 0.587 | 0.793 | 0.622 | 1.56 | 0.619 | 0.706 | 0.673 | 0.682
L fixed | 1.23 | 0.823 | 0.662 | 0.653 | 0.852 | 1.02 | 0.583 | 0.568 | 0.491
M fixed | 0.973 | 0.961 | 0.721 | 0.662 | 0.723 | 0.708 | 0.671 | 0.645 | 0.533
N fixed | 0.621 | 1.3 | 0.861 | 0.861 | 1.23 | 0.691 | 1.07 | 0.933 | 0.983
P fixed | 0.522 | 0.592 | 0.823 | 1.18 | 2.04 | 1.11 | 2.74 | 2.68 | 1.31
Q fixed | 1.11 | 1.06 | 0.956 | 0.82 | 0.932 | 0.65 | 0.966 | 0.897 | 0.708
R fixed | 0.605 | 0.682 | 0.633 | 0.544 | 0.993 | 1.02 | 1.07 | 0.813 | 0.678
V fixed | 2.36 | 1.03 | 0.703 | 0.8 | 0.811 | 0.66 | 0.956 | 0.777 | 0.638
W fixed | 0.575 | 0.917 | 0.874 | 0.841 | 0.566 | 0.74 | 0.62 | 0.673 | 0.799
Y fixed | 0.701 | 1.1 | 0.754 | 0.707 | 0.953 | 2.61 | 1.13 | 0.662 | 0.81
pThr fixed | 2.35 | 0.972 | 1.21 | 3.6 | 3.08 | 4.99 | 3.2 | 1.84 | 1.43
pTyr fixed | 3.09 | 2.14 | 1.38 | 2.98 | 1.92 | 1.75 | 1.76 | 1.46 | 1.13

MAP3K11, construct: aa99-398, human (from UniProt Q16584)
relative phosphorylation
Details | at +1 | at +2 | at +3 | at +4 | at -1 | at -2 | at -3 | at -4 | at -5
A fixed | 0.654 | 0.524 | 0.71 | 0.779 | 0.713 | 0.983 | 1.06 | 1.02 | 1.21
D fixed | 0.261 | 0.298 | 0.538 | 0.592 | 1.06 | 1.07 | 1.34 | 1.66 | 1.78
E fixed | 0.424 | 0.285 | 0.445 | 0.549 | 0.891 | 0.89 | 1.35 | 1.46 | 1.24
F fixed | 1.15 | 0.42 | 1.21 | 0.746 | 0.792 | 1.12 | 0.841 | 0.799 | 0.716
G fixed | 0.664 | 0.458 | 1.1 | 1.03 | 0.453 | 1.06 | 1.36 | 1.34 | 1.39
H fixed | 1.36 | 1.53 | 1.17 | 1.07 | 1.52 | 0.919 | 1.24 | 1.03 | 1.14
I fixed | 0.625 | 0.392 | 0.562 | 0.605 | 0.522 | 0.769 | 0.428 | 0.529 | 0.508
K fixed | 1.79 | 3.9 | 2.18 | 3.13 | 1.3 | 0.55 | 0.933 | 0.901 | 1.2
L fixed | 0.71 | 0.407 | 1 | 0.589 | 0.946 | 0.738 | 0.654 | 0.722 | 0.781
M fixed | 1.35 | 0.49 | 0.743 | 0.656 | 1.28 | 1.16 | 0.835 | 0.749 | 0.634
N fixed | 0.699 | 0.666 | 0.971 | 0.834 | 1.16 | 0.949 | 1.1 | 0.947 | 0.996
P fixed | 0.268 | 0.352 | 0.641 | 1.58 | 0.914 | 2.31 | 1.64 | 1.63 | 1.4
Q fixed | 1.33 | 0.705 | 0.753 | 0.876 | 0.901 | 0.679 | 0.948 | 0.89 | 0.865
R fixed | 2.38 | 4.19 | 1.9 | 2.01 | 1.38 | 0.678 | 0.898 | 0.918 | 0.993
V fixed | 0.903 | 0.367 | 0.756 | 0.647 | 0.771 | 0.779 | 0.581 | 0.559 | 0.903
W fixed | 1.29 | 0.729 | 1.16 | 0.527 | 0.928 | 1.16 | 0.754 | 0.924 | 0.522
Y fixed | 1.14 | 1.29 | 1.17 | 0.784 | 1.48 | 1.18 | 1.04 | 0.92 | 0.711
pThr fixed | 0.895 | 0.476 | 0.69 | 0.685 | 0.686 | 1.02 | 1.18 | 1.38 | 1.21
pTyr fixed | 0.498 | 0.528 | 0.608 | 0.454 | 1.08 | 0.972 | 1.27 | 1.06 | 1.08

LATS2, construct: aa553-end, human (from UniProt Q9NRM7)
relative phosphorylation
Details | at +1 | at +2 | at +3 | at +4 | at -1 | at -2 | at -3 | at -4 | at -5
A fixed | 0.577 | 1.11 | 0.859 | 0.703 | 0.693 | 0.789 | 0.766 | 1.15 | 0.615
D fixed | 0.89 | 2.94 | 1.47 | 1.4 | 0.702 | 0.901 | 0.465 | 0.649 | 0.475
E fixed | 0.953 | 0.932 | 1.36 | 1.49 | 0.516 | 1.27 | 0.352 | 0.739 | 0.308
F fixed | 1.29 | 0.699 | 0.846 | 0.865 | 0.483 | 0.764 | 0.415 | 0.981 | 0.672
G fixed | 0.876 | 1.53 | 1.54 | 1.27 | 0.994 | 1.13 | 0.769 | 1.15 | 0.706
H fixed | 0.995 | 1.27 | 1.2 | 1.31 | 1.07 | 1.43 | 1.66 | 1.36 | 6.2
I fixed | 1.16 | 0.853 | 0.778 | 0.671 | 0.331 | 0.321 | 0.242 | 0.49 | 0.308
K fixed | 0.821 | 0.357 | 0.868 | 0.756 | 2.74 | 1.03 | 2.4 | 1.27 | 1.12
L fixed | 1.12 | 0.862 | 0.825 | 0.661 | 0.699 | 0.393 | 0.297 | 0.587 | 0.458
M fixed | 1.49 | 0.841 | 0.875 | 1.07 | 0.71 | 0.91 | 0.36 | 0.92 | 0.439
N fixed | 1.42 | 1.01 | 1.03 | 1.28 | 1.12 | 1.64 | 0.784 | 0.925 | 0.607
P fixed | 0.328 | 0.794 | 1.04 | 1.33 | 2.39 | 0.766 | 1.48 | 1.34 | 0.682
Q fixed | 1.11 | 0.789 | 1.04 | 1.05 | 1.19 | 2.35 | 0.897 | 1.08 | 0.719
R fixed | 0.717 | 0.357 | 0.617 | 0.741 | 1.42 | 1.26 | 4.37 | 1.78 | 1.43
V fixed | 0.84 | 0.829 | 0.747 | 0.524 | 0.425 | 0.367 | 0.325 | 0.545 | 0.445
W fixed | 1.23 | 0.807 | 1.03 | 0.887 | 0.746 | 0.899 | 0.691 | 1.08 | 1.04
Y fixed | 1.18 | 1.02 | 0.874 | 0.996 | 0.779 | 0.782 | 0.734 | 0.966 | 0.776
pThr fixed | 1.08 | 0.655 | 0.925 | 1.55 | 0.287 | 0.456 | 0.441 | 0.552 | 0.349
pTyr fixed | 1.09 | 0.807 | 1.04 | 1.12 | 0.347 | 0.382 | 0.418 | 0.548 | 0.442
